Where a chain is given by its changes, count along the chain named.
B1: Bud32 (residues 328-535 of Methanococcus jannaschii MJ1130), untagged (domain or fragment, UniProt Q58530 328-535, looked up)
chain: KGKKRKIPEHLIGKGAEADIKRDSYLDFDVIIKERVKKGYRDERLDENIRKSRTAREARYLALVKDFGIPAPYIFDVDLDNKRIMMSYINGKLAKDVIEDNLDIAYKIGEIVGKLHKNDVIHNDLTTSNFIFDKDLYIIDFGLGKISNLDEDKAVDLIVFKKAVLSTHHEKFDEIWERFLEGYKSVYDRWEIILELMKDVERRARYVE

Experiments:
[1] = target: Kae1 (M. jannaschii Kae1, residues 1-328 of MJ1130) (Methanocaldococcus jannaschii, UniProt Q58530); experiment: ATP-binding assay
Kae1 (M. jannaschii Kae1, residues 1-328 of MJ1130), sequence (Q58530 1-328): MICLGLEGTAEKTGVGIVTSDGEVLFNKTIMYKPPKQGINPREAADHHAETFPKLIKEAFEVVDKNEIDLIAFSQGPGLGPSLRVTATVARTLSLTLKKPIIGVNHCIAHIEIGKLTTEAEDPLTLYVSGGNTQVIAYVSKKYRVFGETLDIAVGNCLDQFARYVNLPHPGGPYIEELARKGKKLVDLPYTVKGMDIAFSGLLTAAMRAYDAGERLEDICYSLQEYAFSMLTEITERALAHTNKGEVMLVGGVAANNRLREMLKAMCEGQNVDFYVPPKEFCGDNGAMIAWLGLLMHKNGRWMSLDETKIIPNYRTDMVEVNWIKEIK

[2] = target: T1, GST-Kae1 T88R (M. jannaschii) (Methanococcus jannaschii, UniProt Q58530 1-328, T88R); experiment: pull-down
T1 sequence (looked up): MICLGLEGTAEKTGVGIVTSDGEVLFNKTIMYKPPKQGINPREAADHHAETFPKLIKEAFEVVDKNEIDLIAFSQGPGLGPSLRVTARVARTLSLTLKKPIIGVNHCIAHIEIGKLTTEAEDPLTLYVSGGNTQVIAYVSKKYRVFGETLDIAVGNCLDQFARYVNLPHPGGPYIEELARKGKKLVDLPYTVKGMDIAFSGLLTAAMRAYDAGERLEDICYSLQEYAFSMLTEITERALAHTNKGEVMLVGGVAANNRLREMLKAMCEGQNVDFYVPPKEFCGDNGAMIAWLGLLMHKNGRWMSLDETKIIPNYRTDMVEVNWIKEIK

[3] = target: T2, GST-Kae1 T88R/T92R (M. jannaschii) (Methanococcus jannaschii, UniProt Q58530 1-328, T88R | T92R); experiment: pull-down
T2 sequence (looked up): T1 sequence (looked up) with T92R

[4] = target: T3, GST-Kae1 T88R/R91E (M. jannaschii) (Methanococcus jannaschii, UniProt Q58530 1-328, T88R | R91E); experiment: pull-down
T3 sequence (looked up): T1 sequence (looked up) with R91E

[5] = target: T4, GST-Kae1 (residues 1-328 of Methanococcus jannaschii MJ1130) (Methanococcus jannaschii, UniProt Q58530 1-328); experiment: pull-down
T4 sequence (looked up): T1 sequence (looked up) with R88T

Molecule	Kd [1] [µM]	binding result [2]	binding result [3]	binding result [4]	binding result [5]
Nc1ncnc2c1ncn2[C@@H]1O[C@H](COP(=O)(O)OP(=O)(O)OP(=O)(O)O)[C@@H](O)[C@H]1O [ATP]	27				
B1		binds	binds	binds	binds

— article PMC3098719 (Molecular cell, 2008)
